As usually defined, the Kd is the free concentration of one partner at which half of the binding sites on the other are occupied at equilibrium, for simple one-to-one binding.

To fix the notation:
B1: receiving peptide MK(LKKIKSV)4VGER (peptide)
peptide: MKLKKIKSVLKKIKSVLKKIKSVLKKIKSVVGER
notes: With the docking peptide it is said to form a tetramer of two peptides of each type; also called V/K peptide

Series [1] deals with the molecule itself. As to the kind of experiment: circular dichroism spectra, 200-260 nm. In general terms: Circular dichroism is widely used to follow secondary structure.
In series [2] the target is B1. As to the kind of experiment: isothermal titration calorimetry (FIG. 2C); ITC, docking peptide with receiving peptide (FIG. 2C). Background: In ITC the heat of successive injections is recorded.

Take B1: the binding result in series [1] is given as “no binding (tested: 100 µM)”.

For the molecule MKLEEIVSELEEIVSELEEIVTELEEIVSEVGER (also called V/E peptide) [docking peptide MK(LEEIVSE)2LEEIVTELEEIVSEVGER], the binding result in series [1] is recorded as “no binding (tested: 100 µM)”. Further, the Kd in series [2] was 62 nM.

These data come from patent US20190381186A1 (TRUSTEES OF BOSTON UNIVERSITY, published 2019).
